Measurements taken from patent US20170173151A1 (Genmab, published 2017).
Values belong to the molecule of their own block, whether it stands above or below them.

Experiments:
[1] = molecular target: human CD74, naturally expressed on cells (Raji, Daudi, M4A4, NCI-H747 cells; human tonsil tissue) (human) (UniProt P04233); assay: cell-based or functional assay
[2] = molecular target: human CD74, naturally expressed on cells (Raji, Daudi, M4A4, NCI-H747 cells; human tonsil tissue) (human) (UniProt P04233); assay: FACS on Daudi cells at 0° C., Alexa-488-labeled antibody displaced by excess unlabeled antibody
[3] = molecular target: T1, HisCD74v1 (recombinant extracellular domain of human CD74 variant 1, N-terminal hexameric His tag) (human, UniProt P04233 73-296); assay: ELISA, coated recombinant CD74v1 extracellular domain
T1 construct: also called recombinant CD74v1; CD74v1 extracellular domain
T1 sequence: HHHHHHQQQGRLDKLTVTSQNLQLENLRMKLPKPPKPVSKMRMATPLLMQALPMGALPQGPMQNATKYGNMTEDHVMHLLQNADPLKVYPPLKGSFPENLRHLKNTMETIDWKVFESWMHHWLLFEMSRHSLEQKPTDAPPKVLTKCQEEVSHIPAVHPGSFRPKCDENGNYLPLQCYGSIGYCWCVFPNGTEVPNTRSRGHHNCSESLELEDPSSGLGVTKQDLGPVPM
Experimental: (§1) ELISA plates (Greiner BioOne) were coated 0/N at 4° C. with 2 μg/mL, 100 μL per well, recombinant CD74v1 or CD74v2 in PBS (B. Braun Melsungen AG). Sequences and production of the isoforms were described supra. ELISA wells were washed three times with PBS containing 0.05% Tween-20 (PBST), emptied, and blocked with 1% (w/v) BSA fraction V (Roche) in PBS at RT for 1 h while shaking (300 rpm), and emptied. Subsequently, 100 μL anti-CD74 HuMab antibodies were added in serial dilutions in 0.2% (w/v) BSA fraction V in PBST (assay buffer) and incubated while shaking at RT for 90 min. ELISA plates were washed three times with PBST, emptied, and bound HuMab antibodies were detected using HRP-conjugated goat-anti human IgG (100 μL; 1:5,000; Peroxidase Affinipure Goat anti-human IgG, F(ab′)2 Fragment Specific [min X Bov,Hrs,Ms Sr Prot]; Jackson Immunoresearch) in assay buffer and incubated while shaking at RT for 90 min. Plates were washed three times with PBST, emptied, and incubated with 100 μL ABTS solution (50 ml ABTS buffer [Roche] and one ABTS tablet [50 mg; Roche]). After incubation in the dark at RT for 30 min, the reaction was stopped by addition of 100 μL per well oxalic acid (2% [w/v]). Plates were measured at OD 405 nm in an ELISA reader (Biotek Instruments, EL808 Absorbance Microplate Reader).
(§2) Isotype control Ab IgG1-b12 was used as a negative control. Binding curves were analyzed using non-linear regression (sigmoidal dose-response with variable slope) using GraphPad Prism 5 software (GraphPad Software, San Diego, Calif., USA).

[4] = molecular target: T2, HisCD74v2 (recombinant extracellular domain of human CD74 variant 2, N-terminal hexameric His tag) (human, UniProt P04233 73-296); assay: ELISA, coated recombinant CD74v2 extracellular domain
T2 construct: also called recombinant CD74v2; CD74v2 extracellular domain
T2 sequence: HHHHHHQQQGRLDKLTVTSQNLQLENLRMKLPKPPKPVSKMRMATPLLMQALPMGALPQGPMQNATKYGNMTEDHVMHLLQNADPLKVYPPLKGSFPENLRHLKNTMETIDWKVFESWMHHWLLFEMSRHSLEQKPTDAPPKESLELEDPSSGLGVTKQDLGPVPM
Experimental: as §1, §2

[5] = molecular target: human CD74, naturally expressed on cells (Raji, Daudi, M4A4, NCI-H747 cells; human tonsil tissue) (human) (UniProt P04233); assay: FACS on Daudi cells; mean of three experiments
[6] = molecular target: T1, HisCD74v1 (recombinant extracellular …); assay: ELISA, coated recombinant CD74v1 extracellular domain (CD74ECDHis); mean of four experiments
Experimental: ELISA plates (Greiner BioOne) were coated with 2 μg/mL, 100 μL per well, recombinant CD74ECDHis in PBS (B. Braun Melsungen AG) at 4° C., 0/N. ELISA plates were emptied and blocked with 200 μL/well PBS containing 0.05% Tween-20 (PBST) while shaking (300 rpm), at RT for 1 hour, washed three times with 300 μL PBST and emptied. Subsequently, 100 μL anti-CD74 ADCs or unconjugated CD74-specific HuMab antibodies were added in serial dilutions in PBST and incubated while shaking at RT for 2 hours. ELISA plates were washed with PBST and emptied. Bound anti-CD74 ADCs and unconjugated HuMab antibodies were detected by addition of HRP-conjugated mouse-anti human IgG1 (100 μL; 0.015 μg/mL; Sanquin; # M1328) in PBST and incubation while shaking, at RT for 2 hours. Plates were washed with PBST, emptied and incubated with 100 μL ABTS solution (50 ml ABTS buffer [Roche] and one ABTS tablet [50 mg; Roche]). After incubation in the dark while shaking, at RT for 30 min, the reaction was stopped by incubation with 100 μL per well oxalic acid (2% [w/v]; Riedel de Haen) in the dark while shaking, for 10 min. Plates were measured at OD 405 nm in an ELISA reader (Biotek Instruments, EL808 Absorbance Microplate Reader).
IgG1-b12, an antibody binding to a non-related antigen, was used as a negative control (both unconjugated as well as in ADC format). Binding curves were analyzed by non-linear regression (sigmoidal dose-response with variable slope) using GraphPad Prism 5 software (GraphPad Software, San Diego, Calif., USA).

[7] = molecular target: human CD74, naturally expressed on cells (Raji, Daudi, M4A4, NCI-H747 cells; human tonsil tissue) (human) (UniProt P04233); assay: FACS on Daudi cells, 10 µg/mL; mean of three experiments
[8] = molecular target: human CD74, naturally expressed on cells (Raji, Daudi, M4A4, NCI-H747 cells; human tonsil tissue) (human) (UniProt P04233); assay: FACS on Raji cells

Molecule: IgG1-b12 (antibody)
% viability (minimal) of Raji cells, anti-kappa-ETA' assay [1]: 85.9%

koff [2]: 0.00333 s⁻¹
time until half of the bound labeled antibody was replaced [2]: 4 min
EC50 [3]: 1.39 µg/mL
EC50 [4]: 0.759 µg/mL
B1: HuMab-CD74-008 (antibody, V domains shown)
VH: QVQLVESGGGVVQPGRSLRLSCAASGFTFSSYAMHWVRQAPGKGLEWVAVISYDGSNKYYADSVKGRFTISRDNSKNTLYLQMNSLRAEDTAVYYCARGREITSQNIVILLDYWGQGTLVTVSS
VL: DIQMTQSPSSLSASVGDRVTITCRASQGISSWLAWYQQKPEKAPKSLIYAASSLQSGVPSRFSGSGSGTDFTLTISSLQPEDFATYYCQQYNSYPLTFGGGTKVEIK
notes: Human IgG,kappa antibody (HuMab) produced transiently in HEK-293F cells; also called antibody 008

EC50 [5]: 0.05 µg/mL
EC50 [6]: 0.02 µg/mL
Maximal binding (MFI at 10 µg/mL) [7]: 5330 MFI
B2: HuMab-CD74-011-mcMMAF (antibody, IgG1, V domains shown)
VH: QVQLVESGGGVVQPGRSLRLSCAASGFTFSSYGMHWVRQAPDKGLEWVAVIWYDGSNKYYADSVKGRFTISRDNSKNTLYLQMNSLRAEDTAVYYCARGGTLVRGAMYGTDVWGQGTTVTVSS
VL: B1 VL
modifications: drug-linker mcMMAF alkylated to the cysteines of the reduced antibody (DAR 3.9 by HIC)
notes: Antibody-drug conjugate of HuMab-CD74-011 (IgG1,kappa)
% kill of Daudi cells at 10 µg/mL [1]: 92%
% kill of M4A4 cells at 10 µg/mL [1]: 96%
% kill of NCI-H747 cells at 10 µg/mL [1]: 17%
% kill of Raji cells at 10 µg/mL [1]: 92%
IC50 of killing of Daudi cells [1]: 0.01 µg/mL
IC50 of killing of M4A4 cells [1]: 0.1 µg/mL
IC50 of killing of Raji cells [1]: 0.01 µg/mL

EC50 [5]: 0.05 µg/mL
EC50 [6]: 0.03 µg/mL
Maximal binding (MFI at 10 µg/mL) [7]: 3790 MFI
B3: HuMab-CD74-011-vcMMAE (antibody, IgG1, V domains shown)
VH: B2 VH
VL: B1 VL
modifications: drug-linker vcMMAE alkylated to the cysteines of the reduced antibody (DAR 3.8-3.9)
notes: Antibody-drug conjugate of HuMab-CD74-011 (IgG1,kappa); also called vcMMAE-conjugated HuMab-CD74-011
% kill of Daudi cells at 10 µg/mL [1]: 86%
% kill of M4A4 cells at 10 µg/mL [1]: 100%
% kill of NCI-H747 cells at 10 µg/mL [1]: 40%
% kill of Raji cells at 10 µg/mL [1]: 89%
IC50 of killing of Daudi cells [1]: 0.02 µg/mL
IC50 of killing of M4A4 cells [1]: 0.32 µg/mL
IC50 of killing of NCI-H747 cells [1]: 7.91 µg/mL
IC50 of killing of Raji cells [1]: 0.04 µg/mL

EC50 [5]: 0.05 µg/mL
EC50 [6]: 0.02 µg/mL
koff [2]: 0.00117 s⁻¹
time until half of the bound labeled antibody was replaced [2]: 10 min
Maximal binding (MFI at 10 µg/mL) [7]: 5780 MFI
EC50 [8]: 0.151 µg/mL
EC50 [3]: 0.344 µg/mL
EC50 [4]: 0.245 µg/mL
B4: HuMab-CD74-011 (antibody, human IgG1, V domains shown)
VH: B2 VH
VL: B1 VL
notes: Human IgG1,kappa antibody produced transiently in HEK-293F cells; also called antibody 011
